Experimental data: the supplement of paper PMC10567573

B1: KCNA1 (parent)
chain: LKASMRELGLLIFFLFIGVILFSS

Variants of: B1
Assay: protein stability index of a GFP-peptide fusion (GPS, HEK-293T) (PSI 1-6); higher = more stable
Settings: c terminus: a fixed tail appended
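Also: lentivirally expressed fusions sorted by FACS into six bins by GFP to DsRed ratio, PSI derived from sequencing read proportions per bin multiplied by bin number.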

Protein stability index, by site and new letter:
M5: V 2.79 | W 1.78 | N 2.51 | P 3.22 | D 2.29 | Y 2.42 | T 2.21 | G 1.28 | I 2.19 | Q 3.33 | C 2.92 | R 1.76 | A 3.19 | K 1.94 | F 1.98 | S 2.33 | L 1.82
E7: W 1.42 | D 2.72 | L 2.16 | M 1.95 | I 2.77 | T 2.01 | R 2.07 | Y 1.74 | C 1.65 | P 2.28 | Q 1.68 | F 1.84 | G 2.13 | N 1.55 | H 2.29 | S 1.88 | K 2.21 | A 2.13 | V 1.99
L11: M 1.73 | R 3.65 | K 3.54 | T 4.58 | V 1.61 | E 2.36 | G 3.63 | W 2.73 | C 4.25 | D 3.53 | Y 3.48 | A 3.12 | I 2.49 | F 1.74 | H 2.95 | P 1.89
L8: D 2.32 | Q 2.55 | E 4 | R 2.8 | V 2.42 | S 2.08 | I 2.27 | A 2.58 | G 1.65 | H 2.1 | P 3.22 | W 2.85 | Y 2.58 | M 2.26 | T 2.48 | F 2.39 | C 2.28 | K 2.58
F13: E 2.6 | G 2.98 | S 3.56 | A 1.57 | D 3.37 | L 2.16 | V 1.63 | Q 4.29 | R 2.03 | Y 4.13 | P 3.61 | H 3.07 | M 1.32 | I 1.77 | N 3.41 | K 2.76
L10: K 4 | V 1.23 | N 4.61 | R 2.83 | W 2.58 | Q 2.94 | H 3.23 | G 4.36 | D 3.28 | F 2.27 | T 3.06 | Y 2.13 | I 2.42 | P 2.75 | S 2.77 | M 3.58 | C 2.07 | A 2.62
S4: T 2.46 | K 1.62 | A 3.21 | L 4.39 | V 2.65 | R 2.09 | C 2.87 | G 1.91 | Q 2.55 | E 3.02 | F 2.15 | P 3.03 | H 2.07 | Y 2.17 | D 3.58 | M 1.97 | N 2.31 | I 1.69 | W 1.55
F22: H 3.76 | G 1.81 | E 2.63 | D 2.83 | A 2.33
A3: F 1.72 | Q 2.12 | N 1.86 | W 2.14 | L 1.77 | I 1.53 | G 1.65 | H 2.89 | K 2.16 | C 1.92 | D 2.46 | T 2.12 | V 1.67 | Y 2.06 | P 2.17 | R 1.74 | S 2.37 | E 1.78 | M 1.58
I17: Y 2.24 | T 2.48 | N 4.03 | S 2.3 | P 2.77 | K 2.83 | H 2.85 | V 2.74 | G 2.88 | A 2.83 | Q 2.82 | E 1.91 | D 2.29 | W 3.85 | L 1.95 | F 2.79 | R 2.71 | C 2.56 | M 3.35
L15: S 2.67
